According to US11414646 (QURATIS, dated 2022):

Molecular target: T1, Toll-like receptor 4 (TLR4) of mouse bone marrow-derived dendritic cells (mouse, UniProt Q9QUK6 26-835)
T1 construct: whole, on cells; also called TLR (toll-like receptor)-4
T1 sequence: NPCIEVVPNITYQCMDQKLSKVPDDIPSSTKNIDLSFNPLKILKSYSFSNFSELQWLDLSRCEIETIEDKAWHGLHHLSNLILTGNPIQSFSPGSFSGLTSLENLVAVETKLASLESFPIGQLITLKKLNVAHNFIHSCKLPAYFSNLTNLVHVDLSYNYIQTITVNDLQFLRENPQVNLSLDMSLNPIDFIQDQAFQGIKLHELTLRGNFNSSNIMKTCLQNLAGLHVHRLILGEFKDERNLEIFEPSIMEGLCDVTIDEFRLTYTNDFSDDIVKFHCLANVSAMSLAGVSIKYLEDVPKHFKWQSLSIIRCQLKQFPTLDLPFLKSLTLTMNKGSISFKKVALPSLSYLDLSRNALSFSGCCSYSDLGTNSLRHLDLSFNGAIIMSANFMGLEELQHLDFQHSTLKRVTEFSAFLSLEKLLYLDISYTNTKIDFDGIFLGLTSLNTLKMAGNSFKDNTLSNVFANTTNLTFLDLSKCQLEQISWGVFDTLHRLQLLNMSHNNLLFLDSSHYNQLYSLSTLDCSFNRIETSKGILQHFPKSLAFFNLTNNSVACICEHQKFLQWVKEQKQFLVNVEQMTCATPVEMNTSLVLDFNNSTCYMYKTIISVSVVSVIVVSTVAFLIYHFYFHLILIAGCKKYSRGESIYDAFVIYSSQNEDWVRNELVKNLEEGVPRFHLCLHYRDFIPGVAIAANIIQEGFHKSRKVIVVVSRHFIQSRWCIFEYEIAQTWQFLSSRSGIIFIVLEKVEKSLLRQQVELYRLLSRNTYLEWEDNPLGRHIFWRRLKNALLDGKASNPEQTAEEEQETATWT
Assay: figure legend for FIGS. 3D-3F: confocal microscopy, FACS and immunoprecipitation

B1: Recombinant Rv2299c protein (His-tagged, Mycobacterium tuberculosis H37Rv, expressed in E. coli BL21) (ligand)
chain: MNAHVEQLEFQAEARQLLDLMVHSVYSNKDAFLRELISNASDALDKLRIEALRNKDLEVDTSDLHIEIDADKAARTLTVRDNGIGMAREEVVDLIGTLAKSGTAELRAQLREAKNAAASEELIGQFGIGFYSSFMVADKVQLLTRKAGESAATRWESSGEGTYTIESVEDAPQGTSVTLHLKPEDAEDDLHDYTSEWKIRNLVKKYSDFIAWPIRMDVERRTPASQEEGGEGGEETVTIETETLNSMKALWARPKEEVSEQEYKEFYKHVAHAWDDPLEIIAMKAEGTFEYQALLFIPSHAPFDLFDRDAHVGIQLYVKRVFIMGDCDQLMPEYLRFVKGVVDAQDMSLNVSREILQQDRQIKAIRRRLTKKVLSTIKDVQSSRPEDYRTFWTQFGRVLKEGLLSDIDNRETLLGISSFVSTYSEEEPTTLAEYVERMKDGQQQIFYATGETRQQLLKSPHLEAFKAKGYEVLLLTDPVDEVWVGMVPEFDGKPLQSVAKGEVDLSSEEDTSEAEREERQKEFADLLTWLQETLSDHVKEVRLSTRLTESPACLITDAFGMTPALARIYRASGQEVPVGKRILELNPSHPLVTGLRQAHQDRADDAEKSLAETAELLYGTALLAEGGALEDPARFAELLAERLARTL
notes: also called Rv2299c (His); HSP90 family protein
Does B1 bind?
Result: binds
